Test results reported in article PMC3950521 (mBio, 2014).

B1: full-length wild-type LytA (N-acetylmuramoyl-L-alanine amidase, major autolysin of Streptococcus pneumoniae) (enzyme, Streptococcus pneumoniae TIGR4, UniProt P06653 1-318, looked up)
chain: MEINVSKLRTDLPQVGVQPYRQVHAHSTGNPHSTVQNEADYHWRKDPELGFFSHIVGNGCIMQVGPVDNGAWDVGGGWNAETYAAVELIESHSTKEEFMTDYRLYIELLRNLADEAGLPKTLDTGSLAGIKTHEYCTNNQPNNHSDHVDPYPYLAKWGISREQFKHDIENGLTIETGWQKNDTGYWYVHSDGSYPKDKFEKINGTWYYFDSSGYMLADRWRKHTDGNWYWFDNSGEMATGWKKIADKWYYFNEEGAMKTGWVKYKDTWYYLDAKEGAMVSNAFIQSADGTGWYYLKPDGTLADKPEFTVEPDGLITVK
B2: recombinant full-length His-tagged LytA, wt-LytA(N-His6) (enzyme, Streptococcus pneumoniae TIGR4, UniProt P06653 1-318, looked up)
chain: MEINVSKLRTDLPQVGVQPYRQVHAHSTGNPHSTVQNEADYHWRKDPELGFFSHIVGNGCIMQVGPVDNGAWDVGGGWNAETYAAVELIESHSTKEEFMTDYRLYIELLRNLADEAGLPKTLDTGSLAGIKTHEYCTNNQPNNHSDHVDPYPYLAKWGISREQFKHDIENGLTIETGWQKNDTGYWYVHSDGSYPKDKFEKINGTWYYFDSSGYMLADRWRKHTDGNWYWFDNSGEMATGWKKIADKWYYFNEEGAMKTGWVKYKDTWYYLDAKEGAMVSNAFIQSADGTGWYYLKPDGTLADKPEFTVEPDGLITVK

Assays:
Assay in all cases: SAXS
[1] = target: choline-binding domain of wt-LytA (LytA^CBD) (Streptococcus pneumoniae TIGR4)
[2] = target: full-length prophage LytA (prophage of Streptococcus pneumoniae Hungary 19A-6)
SAXS = target: the molecule itself

Row | Molecule | stoichiometry N (SAXS) | also measured
1 | choline-binding domain of wt-LytA (LytA^CBD) (domain or fragment) |  | stoichiometry N [1]: 2
2 | full-length prophage LytA (enzyme) |  | stoichiometry N [2]: 2
3 | B1 | 2 | 
4 | B2 | 2 | 
